{"source": "patent US20140329289", "about": "“ANTI-FH APTAMERS, METHOD FOR PRODUCING SAME, AND USES THEREOF” (Laboratoire Francais du Fractionnement et des …, published 2014)", "binders": {"B1": {"name": "MaptH1.1 N19-53 (ssDNA)", "DNA": "GGGCACGGGTCAGGCGGTTATACGGTGCCCATTGT"}, "B2": {"name": "FAM4 (ssDNA)", "DNA": "GGGTCAATGCCAGGTCTCCAAAGGGGGGGGTTGGGGGACCGTCCGTTGTTGATCTCACATCGGCTCGCAAGCAGTC"}, "B3": {"name": "FAM1-7 (ssDNA)", "DNA": "GGGTCAATGCCAGGTCTCGGGGGGCCGGTTATACGGGTCAGGCGGTTATACGGTATTCATCGGCTCGCAAGCAGTC"}, "B4": {"name": "FAM1-11 (ssDNA)", "DNA": "GGGTCAATGCCAGGTCTCGGGGCAGGCGGTTATACGGAGAGCTTCTTACATGGGCCCTATCGGCTCGCAAGCAGTC"}, "B5": {"name": "FAM1-5 (ssDNA)", "DNA": "GGGTCAATGCCAGGTCTCGCAGAGGTGCGAGGGGCGGTGGGGTCTGGTGGTTATACGCATCGGCTCGCAAGCAGTC"}, "B6": {"name": "FAM1-6 (ssDNA)", "DNA": "GGGTCAATGCCAGGTCTCGAGGAACGTGGGGTCAGGTGGTTATACGCAGGGTACCGGGATCGGCTCGCAAGCAGTC"}, "B7": {"name": "FAM3 (ssDNA)", "DNA": "GGGTCAATGCCAGGTCTCTGAGGCGCAGATGTGGAGGCTTTTACAGGCGGTGCGGAACATCGGCTCGCAAGCAGTC"}, "B8": {"name": "FAM2-2 (ssDNA)", "DNA": "GGGTCAATGCCAGGTCTCCCGGTTACTGCCGTAGTTGTCTTACGGTGGTGTTAGTGGCATCGGCTCGCAAGCAGTC"}, "B9": {"name": "FAM1-8 (ssDNA)", "DNA": "GGGTCAATGCCAGGTCTCAATCAGAAGGGTCTGGTGGTTATACGTTCATGTATTGGGTATCGGCTCGCAAGCAGTC"}, "B10": {"name": "IND1 (ssDNA)", "DNA": "GGGTCAATGCCAGGTCTCGGTGGGAGGTGAGGTCGTTGGACGGTGGCAGGGGATTTTGATCGGCTCGCAAGCAGTC"}, "B11": {"name": "FAM1-3 (ssDNA)", "DNA": "GGGTCAATGCCAGGTCTCGGACCGCGATGGAGAGGGGTCTGGTGGTTATACGCTATGCATCGGCTCGCAAGCAGTC"}, "B12": {"name": "FAM1-4 (ssDNA)", "DNA": "B11 DNA with A21G"}, "B13": {"name": "FAM2-1 (ssDNA)", "DNA": "GGGTCAATGCCAGGTCTCCCGGTTACCGCGCTAAGCTTGGCGATGGTGTTAGTGGCTGATCGGCTCGCAAGCAGTC"}, "B14": {"name": "FAM1-9 (ssDNA)", "DNA": "GGGTCAATGCCAGGTCTCGGGGTGCGAGGGTCTGGTGGTTATACGTCGTCACCTCTAGATCGGCTCGCAAGCAGTC"}, "B15": {"name": "FAM2-6 (ssDNA)", "DNA": "GGGTCAATGCCAGGTCTCCCGGTTACCATCGAGGACGTCGCTTGGTGTTTGTGGCATGATCGGCTCGCAAGCAGTC"}, "B16": {"name": "FAM2-4 (ssDNA)", "DNA": "GGGTCAATGCCAGGTCTCCCGGTTACCAGTTGGTGTTTGTGGCTTTGCACGTCTGCATATCGGCTCGCAAGCAGTC"}, "B17": {"name": "FAM2-5 (ssDNA)", "DNA": "GGGTCAATGCCAGGTCTCCCGGTTACCAACTATGATAGTATGGTGTTTGTGGCATGATCGGCTCGCAAGCAGTC"}, "B18": {"name": "FAM2-7 (ssDNA)", "DNA": "GGGTCAATGCCAGGTCTCCCGGTTACCAAGATCGTTGTTCTTGGTGTTAGTGGCATTCATCGGCTCGCAAGCAGTC"}, "B19": {"name": "FAM1-10 (ssDNA)", "DNA": "GGGTCAATGCCAGGTCTCTGGGGGAGGGAGGGTCTGGGGGTTATACGTCACTAGCAAAATCGGCTCGCAAGCAGTC"}, "B20": {"name": "FAM2-3 (ssDNA)", "DNA": "GGGTCAATGCCAGGTCTCCCGGTTACCTCCATTGGTGGTGTTAGTGGCTTTGTAGGATATCGGCTCGCAAGCAGTC"}, "B21": {"name": "FAM1-12 (ssDNA)", "DNA": "GGGTCAATGCCAGGTCTCACCGGGTCAGGCGGTTATACGGGTGAGGGCAGGTACATACATCGGCTCGCAAGCAGTC"}, "B22": {"name": "FAM1-13 (ssDNA)", "DNA": "B21 DNA with A44G"}, "B23": {"name": "MaptH1.1 N19-58 (ssDNA)", "DNA": "GGGCACGGGTCAGGCGGTTATACGGTGCCCATTGTTCTTT"}, "B24": {"name": "MaptH1.1 N13-48 (MaptH1.1CSO) (ssDNA)", "DNA": "CAGGTCTCGGGCACGGGTCAGGCGGTTATACGGTGCCC"}, "B25": {"name": "MaptH1.1 (ssDNA)", "DNA": "GGGTCAATGCCAGGTCTCGGGCACGGGTCAGGCGGTTATACGGTGCCCATTGTTCTTTATCGGCTCGCAAGCAGTC"}, "B26": {"name": "MaptH1.1 N19-48 (ssDNA)", "DNA": "GGGCACGGGTCAGGCGGTTATACGGTGCCC"}}, "note": "Changes are numbered by the printed parent chain."}
{"target": "T1, Factor H (complement factor H), plasma (Homo sapiens, UniProt P08603 P08603:19-1231)", "T1 sequence (P08603 19-1231, one chain of several)": "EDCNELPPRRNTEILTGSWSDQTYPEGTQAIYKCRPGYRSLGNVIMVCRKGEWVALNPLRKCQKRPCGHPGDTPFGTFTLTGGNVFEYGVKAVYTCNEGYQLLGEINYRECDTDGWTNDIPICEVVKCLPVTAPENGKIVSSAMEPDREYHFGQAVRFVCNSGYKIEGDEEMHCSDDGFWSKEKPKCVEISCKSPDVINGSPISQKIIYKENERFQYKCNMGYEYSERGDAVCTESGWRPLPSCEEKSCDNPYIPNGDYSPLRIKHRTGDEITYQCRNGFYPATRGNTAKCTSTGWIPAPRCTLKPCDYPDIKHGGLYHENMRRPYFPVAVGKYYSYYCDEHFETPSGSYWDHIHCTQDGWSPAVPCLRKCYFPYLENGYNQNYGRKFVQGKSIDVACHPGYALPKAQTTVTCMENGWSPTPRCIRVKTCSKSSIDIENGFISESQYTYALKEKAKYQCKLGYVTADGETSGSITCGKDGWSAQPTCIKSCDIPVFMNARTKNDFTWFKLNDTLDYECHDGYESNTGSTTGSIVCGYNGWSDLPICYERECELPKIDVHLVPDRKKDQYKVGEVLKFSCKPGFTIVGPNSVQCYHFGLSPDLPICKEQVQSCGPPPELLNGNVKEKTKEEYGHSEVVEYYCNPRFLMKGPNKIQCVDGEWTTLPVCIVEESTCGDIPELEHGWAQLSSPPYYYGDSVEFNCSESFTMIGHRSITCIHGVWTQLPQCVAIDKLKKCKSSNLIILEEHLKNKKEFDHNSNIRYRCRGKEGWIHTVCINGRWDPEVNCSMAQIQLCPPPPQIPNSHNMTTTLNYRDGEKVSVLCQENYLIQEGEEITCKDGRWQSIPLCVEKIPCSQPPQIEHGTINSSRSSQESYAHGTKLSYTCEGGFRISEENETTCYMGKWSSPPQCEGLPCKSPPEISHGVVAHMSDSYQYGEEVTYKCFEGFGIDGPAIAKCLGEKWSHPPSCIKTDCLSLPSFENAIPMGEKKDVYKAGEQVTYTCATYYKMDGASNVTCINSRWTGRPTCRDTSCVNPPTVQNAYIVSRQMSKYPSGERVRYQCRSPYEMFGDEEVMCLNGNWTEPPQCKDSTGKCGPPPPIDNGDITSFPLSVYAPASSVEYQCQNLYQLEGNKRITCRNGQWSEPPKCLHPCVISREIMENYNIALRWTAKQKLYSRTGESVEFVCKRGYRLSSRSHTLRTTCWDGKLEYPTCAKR", "assay": "SPR; rank 3 of 5 truncations; 50 mM NaCl, 50 mM MgCl2, pH 7.5", "settings": "tags: LFB preparation (Biacore, amine-coupled NHS/EDC on CM5 chip, 5813 RU); Calbiochem 341274 also used in SELEX"}
{"binder": "B1", "binding result": "binds"}
{"target": "T1, Factor H (complement factor H), plasma", "assay": "SPR; binding stability; 10 mM MgCl2, pH 7.5", "settings": "tags: LFB preparation (Biacore, amine-coupled NHS/EDC on CM5 chip, 5813 RU); Calbiochem 341274 also used in SELEX", "units": {"binding signal": "RU"}}
{"binder": "B2", "binding signal": 25.9}
{"binder": "B3", "binding signal": 15.4}
{"binder": "B4", "binding signal": 16.9}
{"binder": "B5", "binding signal": 21.2}
{"binder": "B6", "binding signal": 30}
{"binder": "B7", "binding signal": 11.7}
{"binder": "B8", "binding signal": 22.4}
{"binder": "B9", "binding signal": 36}
{"binder": "B10", "binding signal": 20.1}
{"binder": "B11", "binding signal": 20.9}
{"binder": "B12", "binding signal": 26.2}
{"binder": "B13", "binding signal": 29.6}
{"binder": "B14", "binding signal": 57.8}
{"binder": "B15", "binding signal": 22.1}
{"binder": "B16", "binding signal": 27.6}
{"binder": "B17", "binding signal": 22.2}
{"binder": "B18", "binding signal": 22.1}
{"binder": "B19", "binding signal": 73.5}
{"binder": "B20", "binding signal": 18.2}
{"binder": "B21", "binding signal": 18.2}
{"binder": "B22", "binding signal": 30.6}
{"target": "T1, Factor H (complement factor H), plasma", "assay": "SPR; rank 2 of 5 truncations; 50 mM NaCl, 50 mM MgCl2, pH 7.5", "settings": "tags: LFB preparation (Biacore, amine-coupled NHS/EDC on CM5 chip, 5813 RU); Calbiochem 341274 also used in SELEX"}
{"binder": "B23", "binding result": "binds"}
{"target": "T1, Factor H (complement factor H), plasma", "assay": "SPR; strongest of the five truncations; 50 mM Tris, 50 mM NaCl, 50 mM MgCl2, pH 7.5; p444 calls the FH recombinant, methods say LFB FH", "settings": "tags: LFB preparation (Biacore, amine-coupled NHS/EDC on CM5 chip, 5813 RU); Calbiochem 341274 also used in SELEX"}
{"binder": "B24", "binding result": "binds"}
{"target": "T1, Factor H (complement factor H), plasma", "assay": "pulldown; affinity chromatography on aptamer-agarose; 74% of A254 retained and eluted with EDTA; 50 mM MgCl2, 50 mM NaCl, pH 7.5", "settings": "tags: LFB preparation (Biacore, amine-coupled NHS/EDC on CM5 chip, 5813 RU); Calbiochem 341274 also used in SELEX; label: biotin", "experimental": "The plasma factor H is eluted with a 50 mM Tris+500 mM EDTA buffer at pH 8.0. The elution peak is collected according to the OD profile."}
{"binder": "B25", "binding result": "binds"}
{"target": "T1, Factor H (complement factor H), plasma", "assay": "SPR; rank 4 of 5 truncations; 50 mM NaCl, 50 mM MgCl2, pH 7.5", "settings": "tags: LFB preparation (Biacore, amine-coupled NHS/EDC on CM5 chip, 5813 RU); Calbiochem 341274 also used in SELEX"}
{"binder": "B26", "binding result": "binds"}
